Assay results reported in patent publication US20100317837A1.

Columns and labels:
[1] = target: Env HT593.1 on 293 cells (HIV-1 isolate HT593.1, clade B); test: cell-based or functional assay
[2] = target: Env UG037.8 on 293 cells (HIV-1 isolate UG037.8, clade A); test: cell-based or functional assay
[3] = target: Env US715.6 on 293 cells (HIV-1 isolate US715.6, clade B); test: cell-based or functional assay
[4] = target: Env BR029.2 on 293 cells (HIV-1 isolate BR029.2, clade F); test: cell-based or functional assay
[5] = target: Env TH022.4 on 293 cells (HIV-1 isolate TH022.4, clade EA); test: cell-based or functional assay
[6] = target: Env UG975.10 on 293 cells (HIV-1 isolate UG975.10, clade G); test: cell-based or functional assay
[7] = target: Env NL4-3 on 293 cells (HIV-1 NL4-3, clade B); test: cell-based or functional assay
[8] = target: Env BR025.9 on 293 cells (HIV-1 isolate BR025.9, clade C); test: cell-based or functional assay
[9] = target: Env RW020.5 on 293 cells (HIV-1 isolate RW020.5, clade A); test: cell-based or functional assay
[10] = target: Env 89.6 on 293 cells (HIV-1 isolate 89.6, clade B); test: cell-based or functional assay
[11] = target: Env US005.11 on 293 cells (HIV-1 isolate US005.11, clade B); test: cell-based or functional assay
[12] = target: Env clone TH966 on pseudotype virus (HIV-1 isolate TH966); test: cell-based or functional assay
[13] = target: Env clone MN-TCLA on pseudotype virus (HIV-1 isolate MN-TCLA) (UniProt P05877); test: cell-based or functional assay
UniProt P05877, sequence (P05877 32-856 limits assumed): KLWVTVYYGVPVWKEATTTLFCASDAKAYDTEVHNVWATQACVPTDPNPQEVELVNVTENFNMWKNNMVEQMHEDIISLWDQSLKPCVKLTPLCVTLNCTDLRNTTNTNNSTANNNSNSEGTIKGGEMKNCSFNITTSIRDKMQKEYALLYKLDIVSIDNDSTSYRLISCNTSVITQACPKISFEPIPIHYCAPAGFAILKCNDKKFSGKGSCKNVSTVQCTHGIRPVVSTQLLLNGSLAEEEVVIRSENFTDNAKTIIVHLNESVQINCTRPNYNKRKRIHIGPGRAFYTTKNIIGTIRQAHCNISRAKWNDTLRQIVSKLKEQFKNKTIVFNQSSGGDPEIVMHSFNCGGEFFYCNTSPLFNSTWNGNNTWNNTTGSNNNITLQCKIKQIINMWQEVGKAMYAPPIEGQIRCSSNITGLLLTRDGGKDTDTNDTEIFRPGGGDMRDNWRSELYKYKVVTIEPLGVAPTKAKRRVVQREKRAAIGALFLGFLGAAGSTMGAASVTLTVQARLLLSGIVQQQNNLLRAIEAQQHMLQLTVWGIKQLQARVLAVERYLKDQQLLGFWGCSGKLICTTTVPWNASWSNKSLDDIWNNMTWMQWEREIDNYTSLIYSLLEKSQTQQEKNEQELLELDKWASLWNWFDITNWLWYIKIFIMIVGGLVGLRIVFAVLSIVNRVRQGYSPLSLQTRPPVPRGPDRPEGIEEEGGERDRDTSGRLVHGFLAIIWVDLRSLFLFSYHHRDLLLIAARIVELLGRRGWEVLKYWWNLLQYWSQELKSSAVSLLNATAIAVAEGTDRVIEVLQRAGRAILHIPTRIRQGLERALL

[14] = target: Env clone GX-C44 on pseudotype virus (HIV-1 isolate GX-C44, Clade C); test: cell-based or functional assay
[15] = target: Env clone VI1399 on pseudotype virus (HIV-1 isolate VI1399); test: cell-based or functional assay
[16] = target: Env clone Z2Z6 on pseudotype virus (HIV-1 isolate Z2Z6, Clade D); test: cell-based or functional assay
[17] = target: Env clone VI1273 on pseudotype virus (HIV-1 isolate VI1273); test: cell-based or functional assay
[18] = target: Env clone R2 on pseudotype virus (HIV-1 isolate R2, Clade B); test: cell-based or functional assay
[19] = target: Env clone GX-E14 on pseudotype virus (HIV-1 isolate GX-E14, Clade E); test: cell-based or functional assay
[20] = target: gp120 89.6 (HIV-1 isolate 89.6); test: ELISA, antigen coated on plate, soluble Fab titrated, Langmuir fit
[21] = target: sCD4-gp120 89.6 complex (HIV-1 isolate 89.6) (UniProt P01730); test: as above
[22] = target: gp120 JR-FL (HIV-1 isolate JR-FL); test: as above
[23] = target: Env clone V5 on pseudotype virus (HIV-1 isolate V5); test: cell-based or functional assay
[24] = target: Env clone VI14004 on pseudotype virus (HIV-1 isolate VI14004, Clade F); test: cell-based or functional assay
[25] = target: Env clone 92RW020.5 on pseudotype virus (HIV-1 isolate 92RW020.5, Clade A); test: cell-based or functional assay
[26] = target: Env clone P37 on pseudotype virus (HIV-1 isolate P37); test: cell-based or functional assay
[27] = target: gp140 89.6 (HIV-1 isolate 89.6); test: ELISA, soluble Fab titrated on Env (direct or D7324 capture format not specified)
[28] = target: gp120 IIIB (HIV-1 isolate IIIB) (UniProt P04578); test: ELISA, soluble Fab titrated on Env (direct or D7324 capture format not specified); IIIB* is gp120
[29] = target: gp120 IIIB (HIV-1 isolate IIIB) (UniProt P04578); test: ELISA, antigen coated on plate, soluble Fab titrated, Langmuir fit

| Substance | % of fusion inhibition, cell-cell fusion assay, Fab at 50 µg/ml [1] | % of fusion inhibition, cell-cell fusion assay, Fab at 50 µg/ml [2] | % of fusion inhibition, cell-cell fusion assay, Fab at 50 µg/ml [3] | % of fusion inhibition, cell-cell fusion assay, Fab at 50 µg/ml [4] | % of fusion inhibition, cell-cell fusion assay, Fab at 50 µg/ml [5] | % of fusion inhibition, cell-cell fusion assay, Fab at 50 µg/ml [6] | % of fusion inhibition, cell-cell fusion assay, Fab at 50 µg/ml [7] | % of fusion inhibition, cell-cell fusion assay, Fab at 50 µg/ml [8] | % of fusion inhibition, cell-cell fusion assay, Fab at 50 µg/ml [9] | % of fusion inhibition, cell-cell fusion assay, Fab at 50 µg/ml [10] | % of fusion inhibition, cell-cell fusion assay, Fab at 50 µg/ml [11] | Concentration of Fab at the 50% neutralization endpoint, pseudovirus assay [12] | Concentration of Fab at the 50% neutralization endpoint, pseudovirus assay [13] | Concentration of Fab at the 50% neutralization endpoint, pseudovirus assay [14] | Concentration of Fab at the 50% neutralization endpoint, pseudovirus assay [15] | Concentration of Fab at the 50% neutralization endpoint, pseudovirus assay [16] | Concentration of Fab at the 50% neutralization endpoint, pseudovirus assay [17] | Concentration of Fab at the 50% neutralization endpoint, pseudovirus assay [18] | Concentration of Fab at the 50% neutralization endpoint, pseudovirus assay [19] | Kd [20] | other results |
| --- | --- | --- | --- | --- | --- | --- | --- | --- | --- | --- | --- | --- | --- | --- | --- | --- | --- | --- | --- | --- | --- |
| Fab X5 | 27% | 34% | 28% | 36% | 43% | 19% | 83% | 71% | 45% | 93% | 72% | – | – | – | – | – | – | – | – | – | – |
| Fab m14 | 78% | 100% | 35% | 71% | 100% | 22% | 96% | 71% | 31% | 100% | 95% | > 100 µg/mL | 2.24 µg/mL | 8.8 µg/mL | > 100 µg/mL | 50 µg/mL | 3.1 µg/mL | 2.24 µg/mL | 100 µg/mL | 5.4 nM | Kd [21]: 7.3 nM; Kd [22]: 0.9 nM |
| Fab m18 | 39% | 34% | 97% | 86% | 93% | 56% | 92% | 86% | 25% | 100% | 93% | > 100 µg/mL | < 1.6 µg/mL | > 25 µg/mL | > 100 µg/mL | 25 µg/mL | 25 µg/mL | 1.6 µg/mL | > 100 µg/mL | 1 nM | Concentration of Fab at the 50% neutralization endpoint, pseudovirus assay [23]: < 2 µg/mL; Concentration of Fab at the 50% neutralization endpoint, pseudovirus assay [24]: < 2 µg/mL; Concentration of Fab at the 50% neutralization endpoint, pseudovirus assay [25]: 3 µg/mL; Concentration of Fab at the 50% neutralization endpoint, pseudovirus assay [26]: 100 µg/mL; EC50 [27]: 1.17 nM; EC50 [28]: 0.48 nM; Kd [29]: 0.08 nM; Kd [21]: 0.9 nM; Kd [22]: 0.9 nM |
